{"source": "paper PMC4202109", "about": "(The FASEB Journal, 2014)", "biological_target": "Fluorescently labeled ATS (intracellular segment) of PfEMP1 variant PF08_0141, full-length segment (P. falciparum, 5-FAM label)", "test": "fluorescence polarisation"}
{"binder": "PFI1780w PHIST domain (as used in fluorescence polarization) (domain or fragment) SLSDEINKCDMKKYTAEEINEMINSSNEFINRNDMNIIFSYVHESEREKFKKVEENIFKFIQSIVETYKIPDEYKMRKFKFAHFEMQGYALKQEKFLLEYAFLSLNGKLCERKKFKEVLEYVKREWIEFRKSMFDVWKEKLASEFREHGEMLNQKRKLKQHEL", "values": [{"measurement": "fold lower affinity than PFE1605w", "value": "~30", "unit": "fold"}]}
